In patent publication US20140363428A1 (Chugai, published 2014) one finds Kd data, which are given here for 12 molecules.

The chains are these.
B1: IgG1-F1261 (antibody)
heavy: QVQLQESGPGLVKPSETLSLTCAVSGHSISHDHAWSWVRQPPGEGLEWIGFISYSGITNYNPSLQGRVTISRDNSKNTLYLQMNSLRAEDTAVYYCARSLARTTAMDYWGEGTLVTVSSASTKGPSVFPLAPSSKSTSGGTAALGCLVKDYFPEPVTVSWNSGALTSGVHTFPAVLQSSGLYSLSSVVTVPSSSLGTQTYICNVNHKPSNTKVDKKVEPKSCDKTHTCPPCPAPELRGGPKVFLFPPKPKDTLYISRTPEVTCVVVDVSHEDPEVKFNWYVDGVEVHNAKTKPREEQYNSTYRVVSVLTVLHQDWLNGKEYKCKVSNKALPAPIEKTISKAKGQPREPQVYTLPPSRDELTKNQVSLTCLVKGFYPSDIAVEWESNGQPENNYKTTPPVLDSDGSFFLYSKLTVDKSRWQQGNVFSCSVMHEALHYHVTRKDLSLSP
light: not shown
notes: EU numbering; copies: 2 + 2
B2: IgG1-F1265 (antibody)
heavy: QVQLQESGPGLVKPSETLSLTCAVSGHSISHDHAWSWVRQPPGEGLEWIGFISYSGITNYNPSLQGRVTISRDNSKNTLYLQMNSLRAEDTAVYYCARSLARTTAMDYWGEGTLVTVSSASTKGPSVFPLAPSSKSTSGGTAALGCLVKDYFPEPVTVSWNSGALTSGVHTFPAVLQSSGLYSLSSVVTVPSSSLGTQTYICNVNHKPSNTKVDKKVEPKSCDKTHTCPPCPAPELRGGPKVFLFPPKPKDTLYISRGPEVTCVVVDVSHEDPEVKFNWYVDGVEVHNAKTKPREEQYNSTYRVVSVLTVLHQDWLNGKEYKCKVSNKALPAPIEKTISKAKGQPREPQVYTLPPSRDELTKNQVSLTCLVKGFYPSDIAVEWESNGQPENNYKTTPPVLDSDGSFFLYSKLTVDKSRWQQGNVFSCSVMHEALHYHVTRKELSLSP
light: not shown
notes: EU numbering; copies: 2 + 2
B3: IgG1-F1272 (antibody)
heavy: QVQLQESGPGLVKPSETLSLTCAVSGHSISHDHAWSWVRQPPGEGLEWIGFISYSGITNYNPSLQGRVTISRDNSKNTLYLQMNSLRAEDTAVYYCARSLARTTAMDYWGEGTLVTVSSASTKGPSVFPLAPSSKSTSGGTAALGCLVKDYFPEPVTVSWNSGALTSGVHTFPAVLQSSGLYSLSSVVTVPSSSLGTQTYICNVNHKPSNTKVDKKVEPKSCDKTHTCPPCPAPELRGGPKVFLFPPKPKDTLYIARTPEVTCVVVDVSHEDPEVKFNWYVDGVEVHNAKTKPREEQYNSTYRVVSVLTVLHQDWLNGKEYKCKVSNKALPAPIEKTISKAKGQPREPQVYTLPPSRDELTKNQVSLTCLVKGFYPSDIAVEWESNGQPENNYKTTPPVLDSDGSFFLYSKLTVDKSRWQQGNVFSCSVMHEALDYHVTKKDLSLSP
light: not shown
notes: EU numbering; copies: 2 + 2
B4: IgG1-F1264 (antibody)
heavy: QVQLQESGPGLVKPSETLSLTCAVSGHSISHDHAWSWVRQPPGEGLEWIGFISYSGITNYNPSLQGRVTISRDNSKNTLYLQMNSLRAEDTAVYYCARSLARTTAMDYWGEGTLVTVSSASTKGPSVFPLAPSSKSTSGGTAALGCLVKDYFPEPVTVSWNSGALTSGVHTFPAVLQSSGLYSLSSVVTVPSSSLGTQTYICNVNHKPSNTKVDKKVEPKSCDKTHTCPPCPAPELRGGPKVFLFPPKPKDTLYISRAPEVTCVVVDVSHEDPEVKFNWYVDGVEVHNAKTKPREEQYNSTYRVVSVLTVLHQDWLNGKEYKCKVSNKALPAPIEKTISKAKGQPREPQVYTLPPSRDELTKNQVSLTCLVKGFYPSDIAVEWESNGQPENNYKTTPPVLDSDGSFFLYSKLTVDKSRWQQGNVFSCSVMHEALHYHVTRKELSLSP
light: not shown
notes: EU numbering; copies: 2 + 2
B5: IgG1-F1266 (antibody)
heavy: QVQLQESGPGLVKPSETLSLTCAVSGHSISHDHAWSWVRQPPGEGLEWIGFISYSGITNYNPSLQGRVTISRDNSKNTLYLQMNSLRAEDTAVYYCARSLARTTAMDYWGEGTLVTVSSASTKGPSVFPLAPSSKSTSGGTAALGCLVKDYFPEPVTVSWNSGALTSGVHTFPAVLQSSGLYSLSSVVTVPSSSLGTQTYICNVNHKPSNTKVDKKVEPKSCDKTHTCPPCPAPELRGGPKVFLFPPKPKDTLYISRNPEVTCVVVDVSHEDPEVKFNWYVDGVEVHNAKTKPREEQYNSTYRVVSVLTVLHQDWLNGKEYKCKVSNKALPAPIEKTISKAKGQPREPQVYTLPPSRDELTKNQVSLTCLVKGFYPSDIAVEWESNGQPENNYKTTPPVLDSDGSFFLYSKLTVDKSRWQQGNVFSCSVMHEALHYHVTRKELSLSP
light: not shown
notes: EU numbering; copies: 2 + 2
B6: IgG1-F1271 (antibody)
heavy: QVQLQESGPGLVKPSETLSLTCAVSGHSISHDHAWSWVRQPPGEGLEWIGFISYSGITNYNPSLQGRVTISRDNSKNTLYLQMNSLRAEDTAVYYCARSLARTTAMDYWGEGTLVTVSSASTKGPSVFPLAPSSKSTSGGTAALGCLVKDYFPEPVTVSWNSGALTSGVHTFPAVLQSSGLYSLSSVVTVPSSSLGTQTYICNVNHKPSNTKVDKKVEPKSCDKTHTCPPCPAPELRGGPKVFLFPPKPKDTLYIARTPEVTCVVVDVSHEDPEVKFNWYVDGVEVHNAKTKPREEQYNSTYRVVSVLTVLHQDWLNGKEYKCKVSNKALPAPIEKTISKAKGQPREPQVYTLPPSRDELTKNQVSLTCLVKGFYPSDIAVEWESNGQPENNYKTTPPVLDSDGSFFLYSKLTVDKSRWQQGNVFSCSVMHEALDYHVTRKELSLSP
light: not shown
notes: EU numbering; copies: 2 + 2
B7: IgG1-F1263 (antibody)
heavy: QVQLQESGPGLVKPSETLSLTCAVSGHSISHDHAWSWVRQPPGEGLEWIGFISYSGITNYNPSLQGRVTISRDNSKNTLYLQMNSLRAEDTAVYYCARSLARTTAMDYWGEGTLVTVSSASTKGPSVFPLAPSSKSTSGGTAALGCLVKDYFPEPVTVSWNSGALTSGVHTFPAVLQSSGLYSLSSVVTVPSSSLGTQTYICNVNHKPSNTKVDKKVEPKSCDKTHTCPPCPAPELRGGPKVFLFPPKPKDTLYISRTPEVTCVVVDVSHEDPEVKFNWYVDGVEVHNAKTKPREEQYNSTYRVVSVLTVLHQDWLNGKEYKCKVSNKALPAPIEKTISKAKGQPREPQVYTLPPSRDELTKNQVSLTCLVKGFYPSDIAVEWESNGQPENNYKTTPPVLDSDGSFFLYSKLTVDKSRWQQGNVFSCSVMHEALHYHVTKKDLSLSP
light: not shown
notes: EU numbering; copies: 2 + 2
B8: IgG1-F1273 (antibody)
heavy: QVQLQESGPGLVKPSETLSLTCAVSGHSISHDHAWSWVRQPPGEGLEWIGFISYSGITNYNPSLQGRVTISRDNSKNTLYLQMNSLRAEDTAVYYCARSLARTTAMDYWGEGTLVTVSSASTKGPSVFPLAPSSKSTSGGTAALGCLVKDYFPEPVTVSWNSGALTSGVHTFPAVLQSSGLYSLSSVVTVPSSSLGTQTYICNVNHKPSNTKVDKKVEPKSCDKTHTCPPCPAPELRGGPKVFLFPPKPKDTLYISRQPEVTCVVVDVSHEDPEVKFNWYVDGVEVHNAKTKPREEQYNSTYRVVSVLTVLHQDWLNGKEYKCKVSNKALPAPIEKTISKAKGQPREPQVYTLPPSRDELTKNQVSLTCLVKGFYPSDIAVEWESNGQPENNYKTTPPVLDSDGSFFLYSKLTVDKSRWQQGNVFSCSVMHEALHYHVTKKDLSLSP
light: not shown
notes: EU numbering; copies: 2 + 2
B9: IgG1-F1274 (antibody)
heavy: QVQLQESGPGLVKPSETLSLTCAVSGHSISHDHAWSWVRQPPGEGLEWIGFISYSGITNYNPSLQGRVTISRDNSKNTLYLQMNSLRAEDTAVYYCARSLARTTAMDYWGEGTLVTVSSASTKGPSVFPLAPSSKSTSGGTAALGCLVKDYFPEPVTVSWNSGALTSGVHTFPAVLQSSGLYSLSSVVTVPSSSLGTQTYICNVNHKPSNTKVDKKVEPKSCDKTHTCPPCPAPELRGGPKVFLFPPKPKDTLYISRQPEVTCVVVDVSHEDPEVKFNWYVDGVEVHNAKTKPREEQYNSTYRVVSVLTVLHQDWLNGKEYKCKVSNKALPAPIEKTISKAKGQPREPQVYTLPPSRDELTKNQVSLTCLVKGFYPSDIAVEWESNGQPENNYKTTPPVLDSDGSFFLYSKLTVDKSRWQQGNVFSCSVMHEALDYHVTRKELSLSP
light: not shown
notes: EU numbering; copies: 2 + 2
B10: IgG1-F1269 (antibody)
heavy: QVQLQESGPGLVKPSETLSLTCAVSGHSISHDHAWSWVRQPPGEGLEWIGFISYSGITNYNPSLQGRVTISRDNSKNTLYLQMNSLRAEDTAVYYCARSLARTTAMDYWGEGTLVTVSSASTKGPSVFPLAPSSKSTSGGTAALGCLVKDYFPEPVTVSWNSGALTSGVHTFPAVLQSSGLYSLSSVVTVPSSSLGTQTYICNVNHKPSNTKVDKKVEPKSCDKTHTCPPCPAPELRGGPKVFLFPPKPKDTLYISRTPEVTCVVVDVSHEDPEVKFNWYVDGVEVHNAKTKPREEQYNSTYRVVSVLTVLHQDWLNGKEYKCKVSNKALPAPIEKTISKAKGQPREPQVYTLPPSRDELTKNQVSLTCLVKGFYPSDIAVEWESNGQPENNYKTTPPVLDSDGSFFLYSKLTVDKSRWQQGNVFSCSVMHEALDYHVTKKDLSLSP
light: not shown
notes: EU numbering; copies: 2 + 2
B11: IgG1-F1275 (antibody)
heavy: QVQLQESGPGLVKPSETLSLTCAVSGHSISHDHAWSWVRQPPGEGLEWIGFISYSGITNYNPSLQGRVTISRDNSKNTLYLQMNSLRAEDTAVYYCARSLARTTAMDYWGEGTLVTVSSASTKGPSVFPLAPSSKSTSGGTAALGCLVKDYFPEPVTVSWNSGALTSGVHTFPAVLQSSGLYSLSSVVTVPSSSLGTQTYICNVNHKPSNTKVDKKVEPKSCDKTHTCPPCPAPELRGGPKVFLFPPKPKDTLYISRQPEVTCVVVDVSHEDPEVKFNWYVDGVEVHNAKTKPREEQYNSTYRVVSVLTVLHQDWLNGKEYKCKVSNKALPAPIEKTISKAKGQPREPQVYTLPPSRDELTKNQVSLTCLVKGFYPSDIAVEWESNGQPENNYKTTPPVLDSDGSFFLYSKLTVDKSRWQQGNVFSCSVMHEALDYHVTKKDLSLSP
light: not shown
notes: EU numbering; copies: 2 + 2
B12: IgG1-F1270 (antibody)
heavy: QVQLQESGPGLVKPSETLSLTCAVSGHSISHDHAWSWVRQPPGEGLEWIGFISYSGITNYNPSLQGRVTISRDNSKNTLYLQMNSLRAEDTAVYYCARSLARTTAMDYWGEGTLVTVSSASTKGPSVFPLAPSSKSTSGGTAALGCLVKDYFPEPVTVSWNSGALTSGVHTFPAVLQSSGLYSLSSVVTVPSSSLGTQTYICNVNHKPSNTKVDKKVEPKSCDKTHTCPPCPAPELRGGPKVFLFPPKPKDTLYIARTPEVTCVVVDVSHEDPEVKFNWYVDGVEVHNAKTKPREEQYNSTYRVVSVLTVLHQDWLNGKEYKCKVSNKALPAPIEKTISKAKGQPREPQVYTLPPSRDELTKNQVSLTCLVKGFYPSDIAVEWESNGQPENNYKTTPPVLDSDGSFFLYSKLTVDKSRWQQGNVFSCSVMHEALHYHVTKKDLSLSP
light: not shown
notes: EU numbering; copies: 2 + 2

For the test, the target named is T1, soluble human FcRn (human, UniProt P55899 24-297; P61769 21-119).
T1 construct: Heterodimer of FcRn alpha chain and beta2-microglobulin; also called hFcRn
T1 sequence (P55899 24-297 limits assumed, chain 1 of 2): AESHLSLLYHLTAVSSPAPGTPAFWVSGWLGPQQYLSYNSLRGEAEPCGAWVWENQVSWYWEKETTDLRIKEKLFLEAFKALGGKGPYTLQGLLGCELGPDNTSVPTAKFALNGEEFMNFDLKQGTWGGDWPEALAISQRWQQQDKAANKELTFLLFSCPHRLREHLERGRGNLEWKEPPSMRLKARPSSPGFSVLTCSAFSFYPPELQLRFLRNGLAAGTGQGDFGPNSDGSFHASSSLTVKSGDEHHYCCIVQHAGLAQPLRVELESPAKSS
T1 sequence (P61769 21-119 limits assumed, chain 2 of 2): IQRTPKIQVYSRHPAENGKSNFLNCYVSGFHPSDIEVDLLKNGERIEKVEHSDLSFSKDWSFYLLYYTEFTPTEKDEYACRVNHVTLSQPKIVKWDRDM
Briefly: SPR (Biacore T100), antibody captured by protein L, hFcRn as analyte, pH 7.0, 25 C.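 Further: KD calculated from fitted association and dissociation rate constants of the sensorgrams, protein L amine-coupled to the sensor chip, sodium phosphate running buffer with NaCl and Tween20.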 A general note: Surface plasmon resonance follows binding to a sensor surface in real time, without labels.
Protocol: An appropriate amount of protein L (ACTIGEN) was immobilized onto Sensor chip CM4 (GE Healthcare) by the amino coupling method, and the chip was allowed to capture an antibody of interest. Then, diluted FcRn solutions and running buffer (as a reference solution) were injected to allow human FcRn to interact with the antibody captured on the sensor chip. The running buffer used comprised 50 mmol/l sodium phosphate, 150 mmol/l NaCl, and 0.05% (w/v) Tween20 (pH 7.0). FcRn was diluted using each buffer. The chip was regenerated using 10 mmol/l glycine-HCl (pH 1.5). Assays were carried out exclusively at 25 degrees C. The association rate constant ka (1/Ms) and dissociation rate constant kd (1/s), both of which are kinetic parameters, were calculated based on the sensorgrams obtained in the assays, and KD (M) of each antibody for human FcRn was determined from these values. Each parameter was calculated using Biacore T100 Evaluation Software (GE Healthcare).
The term Kd denotes the equilibrium constant for the complex coming apart. Read a high Kd as weaker binding. B1: the Kd is 140 nM. That is a sub-micromolar value.

As to B2, binding was put at a Kd of 160 nM. The Kd values of the last two molecules are within 1.5-fold of each other. The same measure for B3: 170 nM; for B4: 130 nM; for B5: 100 nM. With B6, binding was characterised by a dissociation constant (Kd) of 200 nM.

Regarding B7, the affinity, expressed as Kd, was 120 nM.

The molecule B8 displayed a Kd of 150 nM. B9 registered a Kd of 250 nM. Regarding B10, the dissociation constant (Kd) came out at 170 nM. B11 returned a Kd of 210 nM. As for B12, the dissociation constant (Kd) was determined as 120 nM.
